Laboratory results taken from PMC11441981.

Assays:
Test in all cases: GST pull-down from S2 cell lysate with mass spectrometry (volcano plot of spectral intensities)
εCOP = conditions: three biological replicates, read off a plot
Arf79F = conditions: three biological replicates, read off a plot
Ostδ = conditions: three biological replicates, read off a plot
γCOP = conditions: three biological replicates, read off a plot
CG33303 = conditions: three biological replicates, read off a plot
Ostγ = conditions: three biological replicates, read off a plot
Prat, Q27601 = target: T1, Prat, Q27601; conditions: chain shown with the change, three biological replicates, read off a plot
T1 chain: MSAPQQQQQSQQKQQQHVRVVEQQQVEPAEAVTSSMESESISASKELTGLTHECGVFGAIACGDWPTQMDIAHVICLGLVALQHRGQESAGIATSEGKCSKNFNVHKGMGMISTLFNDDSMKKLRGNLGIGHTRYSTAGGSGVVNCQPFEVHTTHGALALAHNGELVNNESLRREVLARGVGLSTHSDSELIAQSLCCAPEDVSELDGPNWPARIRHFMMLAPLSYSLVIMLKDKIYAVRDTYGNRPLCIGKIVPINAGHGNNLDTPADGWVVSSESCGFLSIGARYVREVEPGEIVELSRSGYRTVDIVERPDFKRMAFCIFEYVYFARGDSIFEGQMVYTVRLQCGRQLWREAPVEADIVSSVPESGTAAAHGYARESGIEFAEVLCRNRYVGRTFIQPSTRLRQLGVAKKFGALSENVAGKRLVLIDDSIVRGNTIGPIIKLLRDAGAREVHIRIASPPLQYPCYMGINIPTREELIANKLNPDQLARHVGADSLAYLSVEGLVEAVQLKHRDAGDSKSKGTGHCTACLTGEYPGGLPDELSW

Molecule | other: Difference Log2(CG9590-GST, Wild-type vs W24,27A mutant) (εCOP) [log2] | other: Difference Log2(CG9590-GST, Wild-type vs W24,27A mutant) (Arf79F) [log2] | other: Difference Log2(CG9590-GST, Wild-type vs W24,27A mutant) (Ostδ) [log2] | other: Difference Log2(CG9590-GST, Wild-type vs W24,27A mutant) (γCOP) [log2] | other: Difference Log2(CG9590-GST, Wild-type vs W24,27A mutant) (CG33303) [log2] | other: Difference Log2(CG9590-GST, Wild-type vs W24,27A mutant) (Ostγ) [log2] | other: Difference Log2(CG9590-GST, Wild-type vs W24,27A mutant) (Prat, Q27601) [log2]
GST-tagged CG9590 (Drosophila FAM114A) (from UniProt Q9VF39) W24A; W27A | 5.5 | 1.4 | 1.7 | 6.3 | 2.5 | 1.1 | –
GST-tagged CG9590 (Drosophila FAM114A), Q9VF39 W24A; W27A (protein) MAKNPKKEEDGGNDWAQSDEDDNADDAGDDDDKFVHVEKEQQPQEKVSSRNDAKGTAENQEKLETPRISAPATASATSSSWGLWGGKLSSVLTTATEGLGTITTQVNQGLNQIIGVPDPEELARINVAEKAEKAAKAPPEENVDDEKESSAAFGLDFVTNLGSKVLNTGLDTLEGIGKKTMTILQDNDPKLMNKRKLLGLEANSPNLSAVLLEAKKEADQMEQSLQQLQLKRQKAQLRFEILFENYCGLVHFEALEILSKESRLKLDTLLDAVSGNARAELQETINEVKELIELEDLDVESEGDYEAEELSERLAATIKDAELGIQFDDIANHWTQSLSWLTSEEATAADLEQAYAKSIHALSEACALEMCKLHKIAELLLVKPHHSTANEVDGVVNLCQQFNGHLQGLSHRFAAVLSGKSETEESKGRVSTFFSEMLSAVQFIEKAYKLFTPILQMGAV | – | – | – | – | – | – | 9.8
